Reference: patent US20230192815A1

Columns and labels:
[1] = target: Canine parvovirus CPV-2c (TS02 strain), purified virus (canine parvovirus CPV-2c, TS02 strain); experiment: indirect ELISA, purified CPV coated, serum dilution 1:1000; control of the third immunization serum
[2] = target: Canine parvovirus CPV-2c (TS02 strain), purified virus (canine parvovirus CPV-2c, TS02 strain); experiment: indirect ELISA, purified CPV coated, serum dilution 1:5000; control of the third immunization serum
[3] = target: Canine parvovirus CPV-2c (TS02 strain), purified virus (canine parvovirus CPV-2c, TS02 strain); experiment: indirect ELISA, purified CPV coated, serum dilution 1:1000; control of the fourth immunization serum
[4] = target: Canine parvovirus CPV-2c (TS02 strain), purified virus (canine parvovirus CPV-2c, TS02 strain); experiment: indirect ELISA, purified CPV coated, serum dilution 1:25000; control of the third immunization serum
[5] = target: Canine parvovirus CPV-2c (TS02 strain), purified virus (canine parvovirus CPV-2c, TS02 strain); experiment: indirect ELISA, purified CPV coated, serum dilution 1:5000; control of the fourth immunization serum
[6] = target: Canine parvovirus CPV-2c (TS02 strain), purified virus (canine parvovirus CPV-2c, TS02 strain); experiment: indirect ELISA, purified CPV coated, serum dilution 1:25000; control of the fourth immunization serum
[7] = target: Canine parvovirus CPV-2c (TS02 strain), purified virus (canine parvovirus CPV-2c, TS02 strain); experiment: indirect ELISA, purified CPV coated, serum dilution printed 1:1250000 (text: 125,000 times); control of the third immunization serum
[8] = target: Canine parvovirus CPV-2c (TS02 strain), purified virus (canine parvovirus CPV-2c, TS02 strain); experiment: indirect ELISA, purified CPV coated, serum dilution printed 1:1250000 (text: 125,000 times); control of the fourth immunization serum
[9] = target: Canine parvovirus CPV-2c (TS02 strain), purified virus (canine parvovirus CPV-2c, TS02 strain); experiment: cell-based or functional assay
[10] = target: Canine parvovirus CPV-2c (TS02 strain), purified virus (canine parvovirus CPV-2c, TS02 strain); experiment: indirect ELISA, purified CPV coated, nanobody dilution 1:10, anti-His-HRP
[11] = target: Canine parvovirus CPV-2c (TS02 strain), purified virus (canine parvovirus CPV-2c, TS02 strain); experiment: indirect ELISA, purified CPV coated, nanobody dilution 1:100, anti-His-HRP
[12] = target: Canine parvovirus CPV-2c (TS02 strain), purified virus (canine parvovirus CPV-2c, TS02 strain); experiment: indirect ELISA, purified CPV coated, nanobody dilution 1:1000, anti-His-HRP
[13] = target: Canine parvovirus CPV-2c (TS02 strain), purified virus (canine parvovirus CPV-2c, TS02 strain); experiment: indirect ELISA, purified CPV coated, nanobody dilution 1:10000, anti-His-HRP

Molecule	mean OD450 nm [1] [OD450 nm]	mean OD450 nm [2] [OD450 nm]	mean OD450 nm [3] [OD450 nm]	mean OD450 nm [4] [OD450 nm]	mean OD450 nm [5] [OD450 nm]	mean OD450 nm [6] [OD450 nm]	mean OD450 nm [7] [OD450 nm]	mean OD450 nm [8] [OD450 nm]	neutralization titer (CPV neutralization assay, CPE on CRFK cells) (titer (1:x dilution)) [9]	mean OD450 nm [10] [OD450 nm]	mean OD450 nm [11] [OD450 nm]	mean OD450 nm [12] [OD450 nm]	mean OD450 nm [13] [OD450 nm]
Negative serum of non-immunized alpaca	0.158	0.071	0.371	0.048	0.16	0.083	0.044	0.067					
CPV nanobody CPV-VHH-H1 (VHH) VHH: QVQLVESGGGLAQPGGSLRLSCAASGAIDSISAMRWFRQPPGKQRAVVASITSDGVTTYADSVKGRFTISRDNAENTLYLQMNSLKTEDTGVYYCYAALKGYSSGVVAASWGQGTQVTVSG									< 10	2.56	2.46	0.28	0.1
